In the experiment the target is T1, (NPNA)4 peptide (Plasmodium falciparum CSP repeat …).
T1 chain: NPNANPNANPNANPNA
Briefly: SPR. On the technique in general: Surface plasmon resonance follows binding to a sensor surface in real time, without labels.

B1: native anti-NANP Fab (Fab, V domains shown)
VH: EVQLVESGGGLVQPGRSLRLPCTASGFSFGDHAMSWVRQAPGKGLEWVGFIRKTTYGATTHYAAAVRGRFTISRDDSKSIVYLQMNSLKTEDTAVYFCTRVQLDYGPGYQYYGMDVWGQGTTVTVSS
VL: ESVLTQPPSVSGAPGQRVTISCTGMNSNIGAGYDVYWYQQLPGRAPKLLIYGNSNRPSGVPDRFSGSRSGTSASLAITGLQAEDEADYYCQSYDTSLNGWAFGGGTKLTVL
With B1, the binding result was “binds”.

B2: G112T mutant anti-NANP Fab (Fab, V domains shown)
VH: EVQLVESGGGLVQPGRSLRLPCTASGFSFGDHAMSWVRQAPGKGLEWVGFIRKTTYGATTHYAAAVRGRFTISRDDSKSIVYLQMNSLKTEDTAVYFCTRVQLDYGPGYQYYGMDVWGQGTTVTVSS
VL: ESVLTQPPSVSGAPGQRVTISCTGMNSNIGAGYDVYWYQQLPGRAPKLLIYGNSNRPSGVPDRFSGSRSGTSASLAITGLQAEDEADYYCQSYDTSLNGWAFGGGTKLTVL
B2: the binding result is recorded as “binds”.

Values taken from paper PMC12617621 (Computational and Structural Biotechnology Journal, 2025).
